Data reported in article PMC12822413, “TSHR‐Targeting Nucleic Acid Aptamer Treats Graves' Ophthalmopathy via Novel Allosteric Inhibition”.

Target: recombinant TSHR-His (UniProt P16473 21-414)
Assay: SPR; 5 mM Mg2+; kon 7.686e4 M-1s-1, koff 9.023e-4 s-1; 25 C; Flow: DPBS, 5 mM MgCl2, 4.5 g/L glucose, 0.1 mg/mL yeast tRNA, 1 mg/mL BSA, 4 C 30 min; SPR: DPBS, 5 mM Mg2+, pH 7.4, 25 C
Details: protein: commercial; tags: His; label: FAM (flow); biotin (pull-down); stem-loops (NUPACK predicted)

Sequence of recombinant TSHR-His (P16473 21-414): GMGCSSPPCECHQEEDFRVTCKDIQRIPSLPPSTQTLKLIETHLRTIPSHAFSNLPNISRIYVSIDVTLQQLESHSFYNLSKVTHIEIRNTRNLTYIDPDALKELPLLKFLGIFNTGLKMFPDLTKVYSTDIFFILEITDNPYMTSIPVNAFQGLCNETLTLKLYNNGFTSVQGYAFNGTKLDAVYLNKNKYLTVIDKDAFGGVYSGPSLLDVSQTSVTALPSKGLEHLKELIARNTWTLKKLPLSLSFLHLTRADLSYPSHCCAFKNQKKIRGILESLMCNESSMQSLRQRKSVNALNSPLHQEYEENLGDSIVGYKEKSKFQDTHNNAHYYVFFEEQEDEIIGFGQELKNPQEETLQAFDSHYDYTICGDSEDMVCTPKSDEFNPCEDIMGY

B1: YC3 (structured_DNA)
DNA: ACCGACCGTGCTGGACTCAGATGAACAATCGATGGAAGATTGGGTCGCACCGGCCTCTTTCACTATGAGCGAGCCTGGCG
B1 gave a Kd of 11.7 nM.
